This is an account of results in publication PMC5173032.

This experiment concerns the target human coagulation factor XII (purchased, not His-tagged) (human).

B1: 1M-265Rdel-hPEPD (domain or fragment)
chain: TIQNGDMCLFDMGGEYYCFASDITCSFPANGKFTADQKAVYEAVLRSSRAVMGAMKPGVWWPDMHRLADRIHLEELAHMGILSGSVDAMVQAHLGAVFMPHGLGHFLGIDVHDVGGYPEGVERIDEPGLRSLRTARHLQPGMVLTVEPGIYFIDHLLDEALADPARASFLNREVLQRFRGFGGVRIEEDVVVTDSGIELLTCVPRTVEEIEACMAGCDKAFTPFSGPK
As for B1, the FXII activation relative to hPEPD, chromogenic assay (mutant 40 and 400 nM, FXII 0.97 nM, ZnCl2-containing PBS, RT) is 50%.
